Laboratory results reported in the supplement of paper PMC10724198.
± gives the standard deviation of the averaged measurements.

System: Saccharomyces cerevisiae
Test: protein stability index of tFT-peptide fusion (C-terminal peptide) (PSI (0-1 scale)); higher = more stable (slower turnover)
Conditions: genetic background: wild type; temperature: 30 C
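Further: PSI is a weighted mean of sequencing reads over stability bins, variants kept only with over 10 reads, mCherry proximal and sfGFP distal, peptide attached via GGGS linker.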

Sequence	protein stability index
VRLLGVGGGFTC	0.701 ± 0.038
VRLRLGLLAGWS	0.633 ± 0.012
VRLWLTLQQVDF	0.686 ± 0.085
VRMKAAIGNGAE	0.6686 ± 0.0037
VRNPPPLTRTRP	0.687 ± 0.0097
VRRFRYCLGFFR	0.663 ± 0.059
VRRGHEGCGLRY	0.717 ± 0.025
VRRGRQHLRYGR	0.708 ± 0.045
VRRSGMNIVVLP	0.63872 ± 0.00027
VRRSNKTIKRKK	0.746 ± 0.1
VRRVWYGSFSRL	0.81 ± 0.012
VRSFSFSALLAV	0.58 ± 0.024
VRSVSCPCCAHF	0.7058 ± 0.0056
VRVGVGGVSEFE	0.67062 ± 0.00015
VRVRGDPLVCPL	0.592 ± 0.0096
VRVSGVSVVRFW	0.667 ± 0.012
VRWGVGVGVGWD	0.682 ± 0.057
VSAPRLRVSCNP	0.696 ± 0.014
VSARRTLRFSFE	0.685 ± 0.016
VSCGGSARRASP	0.704 ± 0.0078
VSCLPFLDLMSW	0.701 ± 0.012
VSEKICNCLGKT	0.657 ± 0.088
VSGAAFMSSAFW	0.753 ± 0.045
VSGLKYSVLVGG	0.555 ± 0.015
VSLISCGGVYAG	0.688 ± 0.015

Sequence	protein stability index
VSLVDRFVLAIV	0.5619 ± 0.0011
VSPGPSPPPPPR	0.622 ± 0.072
VSPLSHPPSPAP	0.702 ± 0.021
VSRPRSLLVPNF	0.67 ± 0.07
VSSAGRPRGFLP	0.671 ± 0.01
VSSELLFLVVRF	0.543 ± 0.0089
VSTVFGCDICST	0.701 ± 0.034
VSVGEDGNRPTC	0.645 ± 0.071
VSVGGVWGQCVA	0.6618 ± 0.0047
VSVGLGRCSIFW	0.7217 ± 0.0048
VTAIVLSVLSGC	0.556 ± 0.022
VTEGGGGGKGRG	0.6917 ± 0.0064
VTGPLSSDSSFT	0.672 ± 0.017
VTGTQGELGSFV	0.689 ± 0.11
VTIDETMSKGIN	0.698 ± 0.045
VTSRSFYRVSPL	0.68 ± 0.14
VTSTVPRFPQFT	0.667 ± 0.014
VTTKMQVAGSRK	0.6377 ± 0.00065
VVAGCLWGEYAT	0.702 ± 0.17
VVAPETTPFSPR	0.7193 ± 0.007
VVCLGGVVLPRV	0.65788 ± 0.00012
VVEPEVCLPSMR	0.6942 ± 0.0032
VVFFPVLSYFFR	0.649 ± 0.064
VVFQSLPCLSPP	0.758 ± 0.037
VVGAGDWRWGVW	0.78884 ± 0.00041

Sequence	protein stability index
VVGAIVILRGLR	0.632 ± 0.018
VVGALRFSDLFK	0.73 ± 0.042
VVGAVFFGCRLL	0.6 ± 0.15
VVGGVLRFLLLW	0.599 ± 0.013
VVGPVLTCAVRF	0.617 ± 0.076
VVHSRSTPAHPH	0.679 ± 0.12
VVLGESSGGVGV	0.643 ± 0.097
VVPSRCCQRLRK	0.716 ± 0.035
VVRLRCSVGWCS	0.575 ± 0.011
VVRQDQPDLKSS	0.691 ± 0.008
VVRRHKRVLMRF	0.659 ± 0.015
VVSDGARLVWGG	0.754 ± 0.12
VVSYFFSNDVLH	0.752 ± 0.073
VVSYVHTQPPLS	0.684 ± 0.073
VVTFSRSDIVLR	0.694 ± 0.076
VVVFPYCPLPLV	0.597 ± 0.076
VVVGVGGGVDMG	0.685 ± 0.0082
VVVSDFRSCNMS	0.736 ± 0.043
VVVVRCGWGGCG	0.592 ± 0.012
VWASVRRIFRVG	0.554 ± 0.0058
VWGVRVVCGFTV	0.533 ± 0.0038
VWLGGRECVVRG	0.597 ± 0.02
VWRGVWQVVVGG	0.5227 ± 0.0013
VWSDGCWVDWLL	0.733 ± 0.13
VWSGGCVSRWSG	0.745 ± 0.15

Sequence	protein stability index
VWSLGLSVVGLW	0.649 ± 0.092
VYFLRLERVPSF	0.696 ± 0.017
VYGGFGGGRWVI	0.702 ± 0.087
VYGVLLGWGCVV	0.577 ± 0.015
VYGWSPLSEARN	0.738 ± 0.025
VYLVVSSSMDYR	0.633 ± 0.078
VYNLHRGLFLSL	0.512 ± 0.0097
VYSAGRAVGLAG	0.673 ± 0.035
VYSGYVFRKDGI	0.695 ± 0.024
VYTNAVPLSSNA	0.817 ± 0.1
VYVEMWGTSENW	0.653 ± 0.011
WAGGGFVVGCVG	0.629 ± 0.062
WALRADGGERTG	0.684 ± 0.021
WAPFGKMVGGPW	0.785 ± 0.027
WAPPPPYSPFSL	0.704 ± 0.0098
WARFRKGEVRSG	0.748 ± 0.072
WARLVSSSLAAT	0.61763 ± 0.00038
WAVGGKVNEVIE	0.757 ± 0.06
WCGSSGLFLVVW	0.594 ± 0.017
WCTLNGASLCLH	0.7719 ± 0.0067
WCWTYLRFSVEL	0.677 ± 0.055
WDGGGGGFGLVV	0.755 ± 0.06
WDGWPTRAGGTG	0.7141 ± 0.0069
WEGVGERVGGGA	0.638 ± 0.017
WENMDKCSKGLI	0.6767 ± 0.0033

Sequence	protein stability index
WERRRGVCGGVW	0.707 ± 0.05
WEWGCRVEELSG	0.742 ± 0.0086
WFFRSVVPRCGG	0.63 ± 0.038
WFPSSLPLTCIQ	0.651 ± 0.084
WGAGGGGWWGGV	0.731 ± 0.03
WGALVLAVRSAP	0.642 ± 0.037
WGEGSGRVWEIS	0.679 ± 0.019
WGGAGRVWVLGP	0.696 ± 0.019
WGGGGRGWGSRG	0.684 ± 0.057
WGGGSGRRIGCR	0.70604 ± 0.00021
WGGLGGREPGGS	0.74 ± 0.078
WGGVRRVRVGGQ	0.723 ± 0.053
WGLCWFGCLWGR	0.692 ± 0.033
WGLGVGGCGWVG	0.67 ± 0.018
WGPGGGGVSDGM	0.768 ± 0.019
WGQGTGFWGLFG	0.681 ± 0.024
WGRGEWKRGQEA	0.743 ± 0.053
WGRTRGDHGGKK	0.686 ± 0.04
WGSWCLVPDGNE	0.717 ± 0.084
WGTTLMYKAKKA	0.616 ± 0.024
WHACAGWLGQKG	0.71 ± 0.078
WHGDDSSIWQVG	0.791 ± 0.036
WHGSVPHLWFPP	0.59 ± 0.026
WHIEGFGQYYSL	0.736 ± 0.019
WHRCQWTPASRP	0.733 ± 0.05

Sequence	protein stability index
WIGHALPSSNSH	0.675 ± 0.056
WKKSIKKDTREM	0.721 ± 0.012
WKPGSPGCQAFR	0.6031 ± 0.0017
WKRDSCFFIEAG	0.638 ± 0.042
WLAVVGRDGFLG	0.729 ± 0.016
WLFSSRDSGACR	0.8029 ± 0.0011
WLGGIFRNKVFT	0.621 ± 0.013
WLGSGESVGHAG	0.686 ± 0.067
WLGTGIILPITG	0.793 ± 0.13
WLGWIVNNSNTE	0.753 ± 0.058
WLLSVYSVGTDV	0.589 ± 0.2
WLSDSCRMNSEV	0.666 ± 0.035
WLSLPLAHLFSP	0.681 ± 0.047
WLVGSGGVWSGR	0.706 ± 0.019
WLVRNVVGGGLC	0.701 ± 0.046
WLVSPPTPFPLP	0.6422 ± 0.0039
WMDNTKKGNKDS	0.736 ± 0.06
WMSGETTHTGRP	0.742 ± 0.026
WMTFTTAVTDGG	0.656 ± 0.046
WNLESKTEARTR	0.704 ± 0.049
WNRNVEILSALA	0.548 ± 0.012
